Patent US20170002083A1 (KYMAB, published 2017)
Values belong to the binder of their own block, whether it stands above or below them.

Key:
[1] = target: T1, Recombinant Rhesus OX40L (Leader Sequence, FLAG and Isoleucine zipper included) (Rhesus (Macaca mulatta)); experiment: SPR (ProteOn XPR36), rhesus OX40L at 256 nM, apparent affinity; CNROR = Cannot resolve off-rate
T1 construct: also called RhsOX40L; Rhesus monkey OX40L

[2] = target: T2, Recombinant Human OX40L (Leader sequence, Isoleucine Zipper and FLAG Sequence Included) (human); experiment: HTRF ligand/receptor neutralisation: biotinylated hOX40L with OX40RFc-AF647, antibody titrated; readout is % of receptor binding
T2 construct: also called hOX40L; recombinant hOX40L
T2 sequence (chain, as listed by the source limits assumed): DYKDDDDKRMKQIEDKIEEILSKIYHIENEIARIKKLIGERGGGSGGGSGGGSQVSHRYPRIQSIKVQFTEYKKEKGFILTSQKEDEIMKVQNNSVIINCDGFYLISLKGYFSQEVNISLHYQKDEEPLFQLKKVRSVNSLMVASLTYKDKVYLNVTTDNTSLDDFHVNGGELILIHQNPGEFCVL
Procedure: (§1) In order to determine whether recombinantly expressed fully human purified IgG inhibit human OX40L binding to OX40RFc the following method was carried out. Fully human purified IgG or other inhibitor were tested in order to establish the clone potency as measured by IC₅₀ values in the assay. Antibodies recombinantly expressed and purified were titrated by diluting in HTRF assay buffer and 5 μL of this titration transferred to a white 384 well low volume non-binding surface polystyrene plate (Greiner). Biotinylated OX40L was diluted in HTRF assay buffer to a working concentration of 2.4 nM and 5 μL added. OX40RFc directly labelled with AF647 was then diluted to working concentration of 10 nM and 5 μL added. Non-specific binding was defined by replacing OX40RFc-AF647 with assay buffer or HMM. […] Plates were covered, protected from light and incubated at room temperature for 3 hrs prior to reading time resolved fluorescence at 620 nm and 665 nm emission wavelengths using an EnVision plate reader (Perkin Elmer). Data were analysed by calculating delta F as described in Equation 4 and percentage of receptor for each sample according to Equation 5 or in some cases Equation 6. IC₅₀ values were determined using GraphPad Prism software by curve fitting using a four-parameter logistic equation (Equation 7) (FIG. 1).

[3] = target: T2, Recombinant Human OX40L (Leader …); experiment: HTRF ligand/receptor neutralisation, biotinylated hOX40L, competitor OX40RFc-AF647; mean of three experiments, SEM +/-0.04
Procedure: as §1

[4] = target: T1, Recombinant Rhesus OX40L (Leader …); experiment: SPR (ProteOn XPR36), antibody captured, rhesus OX40L at 256 nM, apparent affinity; CNROR = Cannot resolve off-rate
Procedure: (§2) SPR analysis was carried out using the ProteOn™ XPR36 Array System (BioRad). Anti-mouse IgG (GE Healthcare BR-1008-38) was immobilised on a GLM biosensor surface using amine coupling, the surface was then blocked using 1 M ethanolamine. Test antibodies were captured on this surface and recombinant hOX40L (human and rhesus) were used at a single concentration of 256 nM, binding sensorgrams were double referenced using a buffer injection (i.e. 0 nM) to remove baseline drift and injection artefacts. Apparent affinities for the OX40L-antibody interaction were determined using the 1:1 model inherent to the ProteOn XPR36 analysis software. The assay was run using HBS-EP (Teknova) as running buffer and carried out at 25° C.

[5] = target: T2, Recombinant Human OX40L (Leader …); experiment: HTRF ligand/receptor neutralisation, biotinylated hOX40L, competitor OX40RFc-AF647; mean of three experiments, SEM +/-0.17
Procedure: as §1

[6] = target: T2, Recombinant Human OX40L (Leader …); experiment: SPR (ProteOn XPR36), antibody captured on anti-mouse IgG, hOX40L at a single concentration of 256 nM, 1:1 model, apparent affinity, 25 C
Procedure: as §2

T1 sequence (chain, as listed by the source limits assumed): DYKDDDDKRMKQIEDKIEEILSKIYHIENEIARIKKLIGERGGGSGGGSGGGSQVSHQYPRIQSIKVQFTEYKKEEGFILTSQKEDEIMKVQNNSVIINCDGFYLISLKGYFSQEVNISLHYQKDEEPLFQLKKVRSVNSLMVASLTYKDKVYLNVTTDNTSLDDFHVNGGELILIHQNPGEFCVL

B2: 2D10 (hybridoma) (antibody, V domains shown)
VH: EVQLVESGGGLVQPGGSLRLSCAASGFTFSNYAMNWVRQAPGKGLEWVSTISGSGGATRYADSVKGRFTISRDNSRNTVYLQMNSLRVEDTAVFYCTKDRLIMATVRGPYYYGMDVWGQGTTVTVSS
VL: DIQMTQSPSSLSASVGDRVTITCRASQSISSYLNWYQQKPGKAPNLLIYAASSLQSGVPSRFSGSGSETDFTLTISSLQPEDFATYYCQQSHSVSFTFGPGTKVDIK
notes: Kappa light chain; also called 02D10
- binding result [4]: binds

B5: 9H04 (hybridoma) (antibody, V domains shown)
VH: QVQLVESGGGLVKPGGSLRLSCAASRFTLSDYYMTWIRQAPGKGLEWVSYISSSGNTIYYADSVKGRFTISRDNAKNSLYLQMNSLRAEDTAVYYCARDLSGSYWDYYYGMDVWGQGTTVTVSS
VL: AIQLTQSPSSLSTSVGDRVTIACRASQGINNALAWYQQKPGKAPKLLIYDASSLESGVPSRFSGSGSGTDFTLTISSLQPEDFATYYCQQFNSYPRTFGQGTKVEIK
notes: also called 09H04
- Kd [6]: 5.3 nM

B6: 19H01 (hybridoma) (antibody, V domains shown)
VH: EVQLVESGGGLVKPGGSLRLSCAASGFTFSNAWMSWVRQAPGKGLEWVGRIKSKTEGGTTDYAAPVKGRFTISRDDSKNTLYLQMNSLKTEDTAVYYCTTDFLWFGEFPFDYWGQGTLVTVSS
VL: DIQMTQSPSSLSASVGDRVTITCRASQGISNYLAWYQQKPGKIPKLLIYAASTLQSGVPSRFSGSGSGTDFTLTISSLQPEDVATYYCQKYNSAPRTFGQGTKVEIK
- Kd [6]: 2.2 nM

The remaining lines, values ahead:

- binding result [1]: binds
- IC50 (read off the curve) [2]: ~0.8 nM
- IC50 [3]: 0.75 nM
B1: 2D10 (human) (antibody, human IgG4 S228P, kappa, V domains shown)
VH: B2 VH
VL: DIQMTQSPSSLSASVGDRVTITCRASQSISSYLNWYQQKPGKAPNLLIYAASSLQSGVPSRFSGSGSETDFTLTISSLQPEDFATYYCQQSHSVSFTFGPGTKVDIKR
notes: also called 02D10; 02D10 IgG4-PE

- binding result [1]: binds
- IC50 (read off the curve) [2]: ~1 nM
- IC50 [5]: 1.2 nM
B3: 10A07 (human) (antibody, human IgG4 S228P, kappa, V domains shown)
VH: EVQLVESGGVLVQPGGSLRLSCAASGFTFSSYIMTWVRQAPGKGLEWVSGISGSGGGTYYADSMKGRFTISRDNSKNTLYLQMNSLRVEDTAVYYCAKDRLGPITLVRGGYYYGMDVWGQGTTVTVSS
VL: DIQMTQSPSSLSASVGDRVTITCRASQSISDYLNWYQQKPGKAPKFLIYAASSLQSGVPSRFSGSGSGTDFTLTVSSLQPEDFATYYCQQSYSTPRTFGQGTRVEIKR
notes: also called 10A7; 10A07 IgG4PE

- binding result [4]: binds
B4: 10A07 (hybridoma) (antibody, V domains shown)
VH: B3 VH
VL: DIQMTQSPSSLSASVGDRVTITCRASQSISDYLNWYQQKPGKAPKFLIYAASSLQSGVPSRFSGSGSGTDFTLTVSSLQPEDFATYYCQQSYSTPRTFGQGTRVEIK
notes: Kappa light chain; also called 10A7; mAb 10A7
